Experiment [1] concerns the target T1, mouse Nectin-4 (mouse, UniProt Q8R007 31-508).
T1 construct: whole, on cells; Transiently expressed on CHO-K1 cells; also called murine Nectin-4
T1 sequence (looked up): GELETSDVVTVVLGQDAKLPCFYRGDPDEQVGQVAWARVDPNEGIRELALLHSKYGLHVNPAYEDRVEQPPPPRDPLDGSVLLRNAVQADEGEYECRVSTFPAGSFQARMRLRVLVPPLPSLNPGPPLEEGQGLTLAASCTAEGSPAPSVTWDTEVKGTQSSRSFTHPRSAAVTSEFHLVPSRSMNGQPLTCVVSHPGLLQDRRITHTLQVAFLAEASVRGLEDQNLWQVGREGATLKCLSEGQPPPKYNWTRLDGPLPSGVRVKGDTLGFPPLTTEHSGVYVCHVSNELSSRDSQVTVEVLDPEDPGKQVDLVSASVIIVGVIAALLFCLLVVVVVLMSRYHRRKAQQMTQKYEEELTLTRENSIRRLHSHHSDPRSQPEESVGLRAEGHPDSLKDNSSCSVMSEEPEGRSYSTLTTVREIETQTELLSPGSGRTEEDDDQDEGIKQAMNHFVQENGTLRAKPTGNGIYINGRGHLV
The experiment is described as follows: cell-based ELISA on transfected CHO-K1 cells. (ELISA stands for enzyme-linked immunosorbent assay.)

Experiment [2] concerns the target T2, recombinant purified human Nectin-4-Fc fusion protein (human, UniProt Q96NY8 32-349).
T2 construct: Bought ('Aero Biosystems' as printed); not shown: Fc part of the bought fusion protein; captured by anti-human IgG Fc sensors
T2 sequence: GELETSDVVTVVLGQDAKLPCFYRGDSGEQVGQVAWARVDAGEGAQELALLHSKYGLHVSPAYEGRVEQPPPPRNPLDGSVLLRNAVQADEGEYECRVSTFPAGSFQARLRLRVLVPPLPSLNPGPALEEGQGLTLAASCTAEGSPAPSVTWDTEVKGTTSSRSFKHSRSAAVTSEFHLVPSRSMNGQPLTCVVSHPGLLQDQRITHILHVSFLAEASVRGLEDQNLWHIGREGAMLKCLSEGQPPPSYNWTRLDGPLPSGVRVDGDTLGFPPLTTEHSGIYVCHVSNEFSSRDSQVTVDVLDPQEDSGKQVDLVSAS
Put plainly: BLI (Octet), Nectin-4-Fc on anti-human Fc sensors, run 2. Background: In BLI a coated tip is dipped into the sample, and binding shifts an interference pattern.

Experiment [3] concerns the target T3, cynomolgus monkey Nectin-4 (cynomolgus monkey, UniProt A0A2K5WES1 32-510).
T3 construct: whole, on cells; Transiently expressed on CHO-K1 cells; also called cynomolgus Nectin-4
T3 sequence: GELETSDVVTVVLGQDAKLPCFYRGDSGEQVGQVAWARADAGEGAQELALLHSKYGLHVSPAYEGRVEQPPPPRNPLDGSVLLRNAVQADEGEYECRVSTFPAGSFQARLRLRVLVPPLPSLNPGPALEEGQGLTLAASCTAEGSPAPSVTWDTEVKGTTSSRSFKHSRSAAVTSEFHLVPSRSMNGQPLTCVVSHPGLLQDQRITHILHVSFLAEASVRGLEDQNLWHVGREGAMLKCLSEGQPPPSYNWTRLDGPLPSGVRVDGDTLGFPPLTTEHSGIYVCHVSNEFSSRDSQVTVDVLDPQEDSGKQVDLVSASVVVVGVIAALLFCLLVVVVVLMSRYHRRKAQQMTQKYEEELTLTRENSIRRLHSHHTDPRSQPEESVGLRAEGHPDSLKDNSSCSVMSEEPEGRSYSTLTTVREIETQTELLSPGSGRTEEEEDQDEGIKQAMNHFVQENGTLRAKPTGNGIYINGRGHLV
The experiment is described as follows: cell-based ELISA on CHO-K1 cells expressing cynomolgus monkey Nectin-4.

Experiment [4] concerns the target T2, recombinant purified human Nectin-4-Fc …. The experiment is described as follows: BLI (Octet), Nectin-4-Fc on anti-human Fc sensors, run 1.
Experiment [5] has the same target. Put plainly: BLI (Octet), Nectin-4-Fc on anti-human Fc sensors, run 2. This is another data set of the same source.
The target of experiment [6] is T1, mouse Nectin-4. The experiment is described as follows: cell-based ELISA on CHO-K1 cells expressing mouse Nectin-4.
Experiment [7] deals with T2, recombinant purified human Nectin-4-Fc …. Put plainly: BLI (Octet), Nectin-4-Fc on anti-human Fc sensors, run 1. This is another data set of the same source.
Experiment [8] has as its target T4, human Nectin-4 (on cells) (human, UniProt Q96NY8 32-510).
T4 construct: also called PVRL4; NECT4_HUMAN
T4 sequence: T3 sequence with A39V, V230I, T437A
Put plainly: flow cytometry on A431 cells (endogenous Nectin-4).

Experiment [9] concerns the target T4, human Nectin-4 (on cells). The experiment is described as follows: flow cytometry on BeWo cells (endogenous Nectin-4). For orientation: A flow cytometer gives signals particle by particle.
Experiment [10] has as its target T4, human Nectin-4 (on cells). The experiment is described as follows: flow cytometry on HT-29 cells (endogenous Nectin-4).

Positions count from the first letter of the chain named.

What is called Kd is the free concentration of one partner at which half of the binding sites on the other are occupied at equilibrium, for simple one-to-one binding. As a reminder, the koff is the first-order rate constant of dissociation. As a reminder, the kon is a measure of how fast the partners come together. The EC50 is the concentration at which the effect is half-maximal.

B1: LV1178 (VHH)
VHH: EVQLVESGGALVQAGGSLRLSCSVSGLTASRLTMGWFRQAPGKEREFVARVYASGGLTDYADSVKGRFTISRDNAKNTVYLQMNSLEPEDTAVYYCVAGLWADMRTMTSTRGYWGQGTQVTVSS
notes: Llama-derived anti-Nectin-4 VHH from phage display
B1: the binding result in [1] is “no binding (tested: 0.032 to 500 nM)”; in [3], “binds”. Moreover, the Kd in experiment [2] came to 8.02 nM.

B2: LV1184xVδ2 (bispecific antibody)
chain: EVQLVESGGGLVQAGGSLRLSCAASGSISSINLMGWFRQAPAKQRELVTSISPGGSVRYADSVKGRFTISRDVAKNTVDLQMNSLKPEDTAVYYCAAESERTYYFDSWGQGTQVTVSSGGGGSEVQLVESGGGLVQAGGSLRLSCAASGRPFSNYAMGWFRQAPGKEREFVAAISWSGGSTSYADSVKGRFTISRDNAKNTVYLQMNSPKPEDTAIYYCAAQFSGADYGFGRLGIRGYEYDYWGQGTQVTVSS
notes: Orientation N-term-anti-Nectin-4 VHH-linker-anti-Vδ2 VHH (5C8); no Fc; also called Nectin-4xVδ2 bispecific VHH
Consider B2, for which, in [4], the Kd is 0.07 nM, the off-rate (koff) is 6.33e-05 s⁻¹ and the kon came to 973000 M⁻¹ s⁻¹. For the same molecule, in experiment [5], the Kd is 0.18 nM, the dissociation rate constant (koff) was determined as 0.000149 s⁻¹ and the association rate constant (kon) stood at 844000 M⁻¹ s⁻¹.

B3: LV1181xVδ2 (bispecific antibody)
chain: EVQLVESGGGLVQAGGSLRLSCAASGSISSINLMGWHRQAPGKQRELVATITRGGSTNYADSVKGRFTISRDNGKNTVYLQMNSLKPEDTAAYYCVDVEPSGMGWRDYWGQGTQVTVSSGGGGSEVQLVESGGGLVQAGGSLRLSCAASGRPFSNYAMGWFRQAPGKEREFVAAISWSGGSTSYADSVKGRFTISRDNAKNTVYLQMNSPKPEDTAIYYCAAQFSGADYGFGRLGIRGYEYDYWGQGTQVTVSS
notes: as for B2
As for B3, in experiment [4], the equilibrium dissociation constant (Kd) turned out to be 0.26 nM, the off-rate constant (koff) amounted to 0.000266 s⁻¹ and the kon turned out to be 1.04e+06 M⁻¹ s⁻¹. In experiment [5], the equilibrium dissociation constant (Kd) amounted to 0.37 nM, the off-rate constant (koff) was 0.0003 s⁻¹ and the on-rate (kon) was determined as 818000 M⁻¹ s⁻¹.

B4: LV1185 (VHH)
VHH: EVQLVESGGGLVQAGGSLRLSCAASRSTFSLNIMGWYRQAPGKQREYVATITTGGSTNYADSVRGRFTISRDNAEDTVYLQMNSLKPEDTAVYYCTAELVRRGPTTYWGRGTQVTVSS
notes: Llama-derived anti-Nectin-4 VHH
As for B4, the binding result in experiment [6] and in [3] was “binds” in each case. The values for the dissociation constant (Kd) in experiment [7] and in experiment [2] were 3.61 nM and 2.34 nM, respectively.

B5: LV1186 (VHH)
VHH: B4 VHH with T53S, D76N, N83D
notes: as for B4
For B5, the binding result in experiment [6] and in experiment [3] was “binds” each time. For the same molecule, the Kd in experiment [7] was 3.93 nM; in experiment [2], 3.94 nM.

B6: LV1181 (VHH)
VHH: EVQLVESGGGLVQAGGSLRLSCAASGSISSINLMGWHRQAPGKQRELVATITRGGSTNYADSVKGRFTISRDNGKNTVYLQMNSLKPEDTAAYYCVDVEPSGMGWRDYWGQGTQVTVSS
notes: as for B4
Regarding B6, the figures for the half-maximal effective concentration (EC50) in [8], in experiment [9] and in experiment [10] were 0.33 nM, 0.4 nM and 1.5 nM, respectively. Besides, the binding result in [6] and in experiment [3] was “binds” throughout. Further, the Kd in experiment [7] came to 0.8 nM; in experiment [2] it was 0.76 nM.

B7: LV1183 (VHH)
VHH: EVQLVESGGGLVQAGGSLRLSCAASGSIFDINLMGWYRQAPGKLRELVASITRGGSTWYVDSVKGRFIISRDSAKNTVYLQMNSLKPGDTAVYYCAAESIGSYTFDRWGQGTQVTVSS
notes: as for B4
For the molecule B7, the figures for the binding result in experiment [1] and in [3] were “no binding (tested: 0.032 to 500 nM)” and “binds”, respectively. Besides, the Kd in [7] was 5.7 nM; in experiment [2], 7.98 nM.

B8: LV1185xVδ2 (bispecific antibody)
chain: EVQLVESGGGLVQAGGSLRLSCAASRSTFSLNIMGWYRQAPGKQREYVATITTGGSTNYADSVRGRFTISRDNAEDTVYLQMNSLKPEDTAVYYCTAELVRRGPTTYWGRGTQVTVSSGGGGSEVQLVESGGGLVQAGGSLRLSCAASGRPFSNYAMGWFRQAPGKEREFVAAISWSGGSTSYADSVKGRFTISRDNAKNTVYLQMNSPKPEDTAIYYCAAQFSGADYGFGRLGIRGYEYDYWGQGTQVTVSS
notes: as for B2
On to B8, for which, in experiment [4], the Kd was determined as 2 nM, the koff was determined as 0.00127 s⁻¹ and the kon was 642000 M⁻¹ s⁻¹. In experiment [5], the equilibrium dissociation constant (Kd) was determined as 2.4 nM, the koff came out at 0.00144 s⁻¹ and the association rate constant (kon) is 593000 M⁻¹ s⁻¹.

B9: LV1186xVδ2 (bispecific antibody)
chain: B8 chain with T53S, D76N, N83D
notes: as for B2
With B9, in experiment [4], the Kd is 2.3 nM, the koff worked out at 0.00165 s⁻¹ and the kon amounted to 731000 M⁻¹ s⁻¹. Moreover, in experiment [5], the Kd was 2.6 nM, the off-rate (koff) is 0.0017 s⁻¹ and the kon stood at 660000 M⁻¹ s⁻¹.

B10: LV1184 (VHH)
VHH: EVQLVESGGGLVQAGGSLRLSCAASGSISSINLMGWFRQAPAKQRELVTSISPGGSVRYADSVKGRFTISRDVAKNTVDLQMNSLKPEDTAVYYCAAESERTYYFDSWGQGTQVTVSS
notes: as for B4
As to B10, the 50% effective concentration (EC50) in experiment [8] was found to be 0.24 nM; in experiment [9], 0.3 nM; in experiment [10] it was 1.2 nM. Moreover, the binding result in experiment [6] and in experiment [3] was “binds” each time. In addition, the Kd in experiment [7] and in [2] was 0.51 nM each time.

B11: LV1187 (VHH)
VHH: EVQLVESGGGLVQAGGFLRLSCAASRSVFRINVMGWYRQAPGKQRELVAGITSGGSRRLADSVKGRFTISRDNAKNTVYLQMNSLKPEDTAVYYCFAEAVVGDEPYWGQGTQVTVSS
notes: as for B4
For B11, the binding result in experiment [6] and in [3] was “binds” each time. Moreover, the figures for the dissociation constant Kd in [7] and in [2] were 5.2 nM and 6.09 nM, respectively.
